# Measurements from paper PMC9539438.
# Several values for one entry are separate records, joined by “and”; a condition that tells them apart may be missing. Equal values may be shown once.
# What was measured:
# [1] = biological target: P66 with a c-Myc epitope tag inserted C-terminally to E33 (Borrelia burgdorferi); assay: native gel or EMSA; Blue native PAGE (4-16% Bis-Tris) of membrane B-fractions solubilised in 1.25% digitonin; immunoblot with anti-P66 or anti-c-Myc
# [2] = biological target: P66 with a c-Myc epitope tag inserted C-terminally to E33 (Borrelia burgdorferi)
# [3] = biological target: P66 with a c-Myc epitope tag inserted C-terminally to D303 (Borrelia burgdorferi); assay: native gel or EMSA; Blue native PAGE (4-16% Bis-Tris) of membrane B-fractions solubilised in 1.25% digitonin; immunoblot with anti-P66 or anti-c-Myc
# [4] = biological target: P66 with a c-Myc epitope tag inserted C-terminally to D303 (Borrelia burgdorferi)
Substance,stoichiometry N [1],"single-channel conductance of the outer membrane fraction in black lipid bilayers (1 M KCl, 20 mV) [2] [nS]",stoichiometry N [3],"single-channel conductance of the outer membrane fraction in black lipid bilayers (1 M KCl, 20 mV) [4] [nS]"
P66 with a c-Myc epitope tag inserted C-terminally to E33 (natural protein),3,< 4,–,–
P66 with a c-Myc epitope tag inserted C-terminally to D303 (natural protein),–,–,3 and 5,< 4
